Measurements published in US20160251438A1 (LUDWIG INSTITUTE FOR CANCER RESEARCH, published 2016).

How the values were obtained:
[1] = target: T1, GARP T162D / TGF-β1 complex (human, UniProt Q14392 20-662; P01137 30-390); test: FACS titration on transfected 293T; EC50 mutant / EC50 WT [cont.) B]
Procedure: (§1) Intensities of staining at each concentration of antibody relative to the maximal intensity measured at 5 μg/ml were determined as follows:
(§2) The relative staining intensities were plotted according to the concentration of antibody used for staining, and a non-linear regression analysis was used with the Prism software to determine an EC₅₀ value for binding of the antibody to the WT and to each of the various mutant GARP/TGF-β1 complexes. If the ratio between the EC₅₀ measured on the mutant and the EC₅₀ measured on the WT was >2, the mutation was considered to induce a reduced avidity for binding by the antibody. The ratio of EC₅₀ (mutant vs WT) for MHG-8 and LHG-10 are indicated below each mutation on FIG. 19, parts A and B, respectively.

[2] = target: T2, GARP R143Y / TGF-β1 complex (human, UniProt Q14392 20-662; P01137 30-390); test: as above
T2 sequence (Q14392 20-662 R143Y limits assumed, chain 1 of 2): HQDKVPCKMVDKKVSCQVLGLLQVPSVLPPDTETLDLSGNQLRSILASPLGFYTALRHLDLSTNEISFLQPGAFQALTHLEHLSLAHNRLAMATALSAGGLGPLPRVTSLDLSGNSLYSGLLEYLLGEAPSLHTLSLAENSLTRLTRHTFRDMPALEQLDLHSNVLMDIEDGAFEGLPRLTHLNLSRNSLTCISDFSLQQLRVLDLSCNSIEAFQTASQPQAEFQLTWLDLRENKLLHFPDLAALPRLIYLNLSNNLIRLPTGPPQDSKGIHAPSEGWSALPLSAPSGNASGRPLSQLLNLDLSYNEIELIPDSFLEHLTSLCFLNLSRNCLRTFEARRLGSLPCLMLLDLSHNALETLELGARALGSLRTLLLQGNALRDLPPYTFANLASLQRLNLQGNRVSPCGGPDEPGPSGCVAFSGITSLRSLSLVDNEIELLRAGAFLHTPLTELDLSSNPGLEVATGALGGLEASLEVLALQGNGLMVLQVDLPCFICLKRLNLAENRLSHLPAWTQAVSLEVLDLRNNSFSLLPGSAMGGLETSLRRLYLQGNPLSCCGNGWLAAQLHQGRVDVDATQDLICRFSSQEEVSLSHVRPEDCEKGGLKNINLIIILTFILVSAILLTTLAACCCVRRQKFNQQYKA
T2 sequence (P01137 30-390 limits assumed, chain 2 of 2): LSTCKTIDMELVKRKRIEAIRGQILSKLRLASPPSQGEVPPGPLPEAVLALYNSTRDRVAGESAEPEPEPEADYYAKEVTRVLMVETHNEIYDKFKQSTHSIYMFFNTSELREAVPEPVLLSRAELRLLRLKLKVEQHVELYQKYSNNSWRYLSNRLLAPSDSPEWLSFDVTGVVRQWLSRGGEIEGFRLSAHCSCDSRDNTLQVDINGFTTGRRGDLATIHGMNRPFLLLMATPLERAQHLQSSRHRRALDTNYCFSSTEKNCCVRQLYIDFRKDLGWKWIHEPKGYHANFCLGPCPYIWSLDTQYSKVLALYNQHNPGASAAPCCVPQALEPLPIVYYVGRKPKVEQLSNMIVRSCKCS
Procedure: as §1, §2

[3] = target: GARP S138G / TGF-β1 complex (human, UniProt Q14392 20-662; P01137 30-390); test: flow cytometry titration on transfected 293T cells; grade of Reduced avidity read by footnote 3
Procedure: as §1, §2

[4] = target: GARP G139N / TGF-β1 complex (human, UniProt Q14392 20-662; P01137 30-390); test: as above
Procedure: as §1, §2

[5] = target: GARP M111T/A112G/T113M / TGF-β1 complex (human, UniProt Q14392 20-662; P01137 30-390); test: as above
Procedure: as §1, §2

[6] = target: GARP R163E / TGF-β1 complex (human, UniProt Q14392 20-662; P01137 30-390); test: as above
Procedure: as §1, §2

[7] = target: GARP T165A / TGF-β1 complex (human, UniProt Q14392 20-662; P01137 30-390); test: as above
Procedure: as §1, §2

[8] = target: T1, GARP T162D / TGF-β1 complex; test: as above
Procedure: as §1, §2

[9] = target: GARP G118L/G119L / TGF-β1 complex (human, UniProt Q14392 20-662; P01137 30-390); test: as above
Procedure: as §1, §2

[10] = target: GARP R166M/H167E / TGF-β1 complex (human, UniProt Q14392 20-662; P01137 30-390); test: as above
Procedure: as §1, §2

[11] = target: GARP / TGF-β1 H270Y complex (human, UniProt Q14392 20-662; P01137 30-390); test: as above
Sequence of GARP / TGF-β1 H270Y complex (Q14392 20-662 limits assumed, chain 1 of 2): as the sequence (Q14392 20-662 R143Y limits assumed, chain 1 of 2) above, with Y124R counted along it
Sequence of GARP / TGF-β1 H270Y complex (P01137 30-390 H270Y limits assumed, chain 2 of 2): as the sequence (P01137 30-390 limits assumed, chain 2 of 2) above, with H241Y counted along it
Procedure: as §1, §2

[12] = target: GARP / TGF-β1 R58A complex (human, UniProt Q14392 20-662; P01137 30-390); test: as above
Sequence of GARP / TGF-β1 R58A complex (Q14392 20-662 limits assumed, chain 1 of 2): as the sequence (Q14392 20-662 R143Y limits assumed, chain 1 of 2) above, with Y124R counted along it
Sequence of GARP / TGF-β1 R58A complex (P01137 30-390 R58A limits assumed, chain 2 of 2): as the sequence (P01137 30-390 limits assumed, chain 2 of 2) above, with R29A counted along it
Procedure: as §1, §2

[13] = target: T2, GARP R143Y / TGF-β1 complex; test: as above
Procedure: as §1, §2

[14] = target: GARP R170A / TGF-β1 complex (human, UniProt Q14392 20-662; P01137 30-390); test: as above
Procedure: as §1, §2

[15] = target: GARP / TGF-β1 E146R complex (human, UniProt Q14392 20-662; P01137 30-390); test: as above
Procedure: as §1, §2

[16] = target: GARP / TGF-β1 S337A complex (human, UniProt Q14392 20-662; P01137 30-390); test: as above
Procedure: as §1, §2

[17] = target: GARP / TGF-β1 Y284A complex (human, UniProt Q14392 20-662; P01137 30-390); test: as above
Procedure: as §1, §2

[18] = target: GARP / TGF-β1 K338E complex (human, UniProt Q14392 20-662; P01137 30-390); test: as above
Procedure: as §1, §2

[19] = target: GARP Y137H/S138G/G139N / TGF-β1 complex (human, UniProt Q14392 20-662; P01137 30-390); test: as above
Procedure: as §1, §2

[20] = target: GARP / TGF-β1 Y336A complex (human, UniProt Q14392 20-662; P01137 30-390); test: as above
Procedure: as §1, §2

[21] = target: GARP L140K/E142L / TGF-β1 complex (human, UniProt Q14392 20-662; P01137 30-390); test: as above
Procedure: as §1, §2

[22] = target: GARP Y137H / TGF-β1 complex (human, UniProt Q14392 20-662; P01137 30-390); test: as above
Procedure: as §1, §2

T1 sequence (Q14392 20-662 T162D limits assumed, chain 1 of 2): as the sequence (Q14392 20-662 R143Y limits assumed, chain 1 of 2) above, with Y124R, T143D counted along it
T1 sequence (P01137 30-390 limits assumed, chain 2 of 2): as the sequence (P01137 30-390 limits assumed, chain 2 of 2) above

B1: LHG-10 (antibody, human IgG1, V domains shown)
VH: EVQLVQPGAELRNSGASVKVSCKASGYRFTSYYIDWVRQAPGQGLEWMGRIDPEDGGTKYAQKFQGRVTFTADTSTSTAYVELSSLRSEDTAVYYCARNEWETVVVGDLMYEYEYWGQGTQVTVSS
VL: DIQMTQSPTSLSASLGDRVTITCQASQSISSYLAWYQQKPGQAPKLLIYGASRLQTGVPSRFSGSGSGTSFTLTISGLEAEDAGTYYCQQYDSLPVTFGQGTKVELK
notes: llama-derived V regions in a full human IgG1
Ratio of EC50 (mutant / wt) [1]: 2.5
Ratio of EC50 (mutant / wt) [2]: 1.6
ratio of EC50 (mutant vs WT) [3]: ≤ 2 ratio
ratio of EC50 (mutant vs WT) [4]: ≤ 2 ratio
ratio of EC50 (mutant vs WT) [5]: ≤ 2 ratio
ratio of EC50 (mutant vs WT) [6]: > 2 ratio
ratio of EC50 (mutant vs WT) [7]: ≤ 2 ratio
ratio of EC50 (mutant vs WT) [8]: > 2 ratio
ratio of EC50 (mutant vs WT) [9]: ≤ 2 ratio
ratio of EC50 (mutant vs WT) [10]: ≤ 2 ratio
ratio of EC50 (mutant vs WT) [11]: ≤ 2 ratio
ratio of EC50 (mutant vs WT) [12]: ≤ 2 ratio
ratio of EC50 (mutant vs WT) [13]: ≤ 2 ratio
ratio of EC50 (mutant vs WT) [14]: ≤ 2 ratio
ratio of EC50 (mutant vs WT) [15]: ≤ 2 ratio
ratio of EC50 (mutant vs WT) [16]: ≤ 2 ratio
ratio of EC50 (mutant vs WT) [17]: ≤ 2 ratio
ratio of EC50 (mutant vs WT) [18]: ≤ 2 ratio
ratio of EC50 (mutant vs WT) [19]: > 2 ratio
ratio of EC50 (mutant vs WT) [20]: ≤ 2 ratio
ratio of EC50 (mutant vs WT) [21]: ≤ 2 ratio
ratio of EC50 (mutant vs WT) [22]: ≤ 2 ratio
